According to US20180088121A1:
Where no end group is shown, it is not given here.

Biological target: TCRs of APC frameshift neopeptide specific T cell populations
Test: flow cytometry, double staining with PE and APC labelled neopeptide-MHC multimers of T cells after 2 weeks of in vitro expansion; first panel from the left

number in the upper right quadrant (MHC-Multimer PE and APC double positive), no percent sign printed: 0.31
Binder: LILYYILPRKV (peptide-MHC, part only; not given: HLA-A2 heavy chain, construct, human, part only, also: bound in HLA-A2 MHC multimer, PE and APC labelled) [A2/…]
